This assay addresses T1, HSV-1 glycoprotein D (gD), non-fused, expressed from AdC68gD (HSV-1, UniProt Q05059 26-394).
T1 construct: Complete gD open reading frame (from pRE4) expressed in AdC68gD-infected cells; Tested as detergent cell extract (ELISA) or on and within infected cells; also called native gD; non-fused gD
Put plainly: confocal microscopy of AdC68gD-infected B78-H1/3E5 (human HVEM-EGFP) cells stained with MAb to gD.

T1 sequence (Q05059 26-394): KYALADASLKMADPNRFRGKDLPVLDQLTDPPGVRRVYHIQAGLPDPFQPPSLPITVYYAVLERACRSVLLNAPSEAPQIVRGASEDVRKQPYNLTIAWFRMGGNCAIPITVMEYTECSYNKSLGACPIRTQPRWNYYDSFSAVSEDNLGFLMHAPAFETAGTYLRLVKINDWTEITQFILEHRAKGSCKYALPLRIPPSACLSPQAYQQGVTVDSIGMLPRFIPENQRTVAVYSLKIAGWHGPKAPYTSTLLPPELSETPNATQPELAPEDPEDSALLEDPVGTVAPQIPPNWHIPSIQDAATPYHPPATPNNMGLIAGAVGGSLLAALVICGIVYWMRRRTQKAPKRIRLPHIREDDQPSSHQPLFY

B1: human HVEM fused to Enhanced Green Fluorescence Protein, expressed on B78H1/3E5 cells (receptor)
chain: LPSCKEDEYPVGSECCPKCSPGYRVKEACGELTGTVCEPCPPGTYIAHLNGLSKCLQCQMCDPAMGLRASRNCSRTENAVCGCSPGHFCIVQDGDHCAACRAYATSSPGQRVQKGGTESQDTLCQNCPPGTFSPNGTLEECQHQTKCSWLVTKAGAGTSSSHWVWWFLSGSLVIVIVCSTVGLIICVKRRKPRGDVVKVIVSVQRKRQEAEGEATVIEALQAPPDVTTVAVEETIPSFTGRSPNH
notes: whole, on cells; Mouse melanoma cells B78H1/3E5; also called HVEM-EGFP; HVEM on B78-H1/3E5 cells; not shown: Enhanced Green Fluorescence Protein (EGFP)
In the case of B1, the binding result is on record as “binds”.

Values taken from patent US20220331423A1 (WISTAR INSTITUTE OF ANATOMY AND BIOLOGY, published 2022).
